These results are taken from the supplement of paper PMC7877785.

± gives the uncertainty stated by the source.

This series in a line: self-splicing fitness, log relative to wild type (ln ratio); higher = more splicing; Tetrahymena group I intron in knt gene, E. coli kanamycin selection, DiMSum; sequences stand for … in CUCUCU…GGAGGGAAAAGUUAUCAGGCAUGCACCUGGUAGCUAGUCUUUAAACCAAUAGAUUGCAUCGGUUUAAAAGGCAAGACCGUCAAAUUGCGGGAAAGGGGUCAACAGCCGUUCAGUACCAAGUCUCAGGGGAAACUUUGAGAUGGCCUUGCAAAGGGUAUGGUAAUAAGCUGACGGACAUGGUCCUAACCACGCAGCCAAGUCCUAAGUCAACAGAUCUUCUGUUGAUAUGGAUGCAGUUCACAGACUAAAUGUCGGUCGGGGAAGAUGUAUUCUUCUCAUAAGAUAUAGUCGGACCUCUCCUUAAUGGGAGCUAGCGGAUGAAGUGAUGCAACACUGGAGCCGCUGGGAACUAAUUUGUAUGCGAAAGUAUAUUGAUUAGUUUUGGAGUACUCGUGGUCG
In a few lines: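 Pooled colonies went to amplicon sequencing on an Illumina HiSeq 2500 after six replicate transformations. The plates were LB agar with 100 μg/mL carbenicillin, 50 μM IPTG and 0.2% rhamnose, with or without 25 μg/mL kanamycin, incubated overnight at 37°C or 30°C. The E. coli BL21(DE3) library had all eight P1ex-region intron nucleotides randomised, the intron placed in the knt kanamycin-resistance gene on pET-22b(+). DiMSum fitness is the error-weighted combination of replicate fold changes, kanamycin against none, normalised to wild type.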

With UCACAGCAAUAUUACGAGGC, the “self-splicing fitness (ln)” value is -2.83 ± 0.14 (30 °C) and -2.62 ± 0.16 (37 °C). In the same order, the values of CCUGAGCAAUAUUACGGUUA are -2.13 ± 0.22 and -2.96 ± 0.22. In the same order, the values of GUGCAGCAAUAUUACGAAGU are -1.74 ± 0.14 and -0.554 ± 0.17. As for GUCGAGCAAUAUUACGCUGU, the “self-splicing fitness (ln)” value by setting is: (30 °C) -1.73 ± 0.13; (37 °C) -1.62 ± 0.2. As to UACCAGCAAUAUUACGUUAA, the “self-splicing fitness (ln)” value is -1.36 ± 0.073 (30 °C) and -0.903 ± 0.081 (37 °C).

GGCGAGCAAUAUUACGGCCC: the “self-splicing fitness (ln)” value (30 °C) amounted to 0.209 ± 0.31. Turning to UUUCAGCAAUAUUACGUAAA, the “self-splicing fitness (ln)” value reads like this: (30 °C) -0.728 ± 0.089; (37 °C) -0.608 ± 0.11. Consider ACCGAGCAAUAUUACGCCAG, for which, under “37 °C”, the “self-splicing fitness (ln)” value is -1.35 ± 0.27. As for CACAAGCAAUAUUACGCUUC, the “self-splicing fitness (ln)” value reads like this: (30 °C) -3.67 ± 0.18; (37 °C) -2.59 ± 0.27. In the same order, the values of GGUCAGCAAUAUUACGCAGU are -1.33 ± 0.11 and -0.639 ± 0.13.

In the case of AGAAAGCAAUAUUACGCGUA, the “self-splicing fitness (ln)” value reads like this: (30 °C) -1.71 ± 0.1; (37 °C) -0.388 ± 0.082. For the sequence GUCUAGCAAUAUUACGCAAG, under “37 °C”, the “self-splicing fitness (ln)” value is -1.66 ± 0.38. Take AGCAAGCAAUAUUACGUCCG: the “self-splicing fitness (ln)” value is -0.909 ± 0.12 (30 °C) and -0.462 ± 0.14 (37 °C). As to UCUCAGCAAUAUUACGCGAG, the “self-splicing fitness (ln)” value was -3.73 ± 0.37 (30 °C) and -0.582 ± 0.15 (37 °C). In the same order, the values of AACAAGCAAUAUUACGUUAA are -2.55 ± 0.15 and -1.67 ± 0.14.

Turning to GGUUAGCAAUAUUACGGAAC, the “self-splicing fitness (ln)” value was -1.48 ± 0.3 (30 °C) and -0.799 ± 0.46 (37 °C).

As for UACAAGCAAUAUUACGUCCC, the “self-splicing fitness (ln)” value by setting is: (30 °C) -1.25 ± 0.39; (37 °C) -1.58 ± 0.42. In the same order, the values of UGAUAGCAAUAUUACGCGCG are -0.57 ± 0.086 and -0.283 ± 0.12.

Turning to CAUGAGCAAUAUUACGUCUA, the “self-splicing fitness (ln)” value (30 °C) is -2.57 ± 0.17 and the “self-splicing fitness (ln)” value (37 °C) is -2.28 ± 0.21. As for CGUUAGCAAUAUUACGCCUG, the “self-splicing fitness (ln)” value is, setting by setting: (30 °C) -0.175 ± 0.085; (37 °C) 0.664 ± 0.1. On to ACUAAGCAAUAUUACGAAAA, for which the “self-splicing fitness (ln)” value by setting is: (30 °C) -2.26 ± 0.33; (37 °C) -1.72 ± 0.36.

For the sequence UAUUAGCAAUAUUACGGUAG, the “self-splicing fitness (ln)” value is -2.42 ± 0.21 (30 °C) and -0.417 ± 0.17 (37 °C). In the same order, the values of ACCUAGCAAUAUUACGAAAG are -2.49 ± 0.11 and -2.2 ± 0.13.

Take GCACAGCAAUAUUACGGCAA: the “self-splicing fitness (ln)” value is -1.31 ± 0.13 (30 °C) and -0.887 ± 0.14 (37 °C). For UCGGAGCAAUAUUACGAGGC, under “30 °C”, the “self-splicing fitness (ln)” value is -2.74 ± 0.42. As for CAUCAGCAAUAUUACGUGUA, the “self-splicing fitness (ln)” value is, setting by setting: (30 °C) -1.18 ± 0.083; (37 °C) -0.43 ± 0.079. As to GGAGAGCAAUAUUACGAGGA, the “self-splicing fitness (ln)” value is, setting by setting: (30 °C) -3.52 ± 0.31; (37 °C) -2.44 ± 0.19. In the same order, the values of GCGCAGCAAUAUUACGGCAG are -3.47 ± 0.15 and -2.85 ± 0.19. Turning to CUAGAGCAAUAUUACGAACA, the “self-splicing fitness (ln)” value is, setting by setting: (30 °C) -4.05 ± 0.28; (37 °C) -2.05 ± 0.2.

Take AGGAAGCAAUAUUACGAAAU: the “self-splicing fitness (ln)” value runs as follows: (30 °C) -3.06 ± 0.2; (37 °C) -1.53 ± 0.18. On the same counts, the results for GAAAAGCAAUAUUACGUCGG are -4.39 ± 0.32 and -2.89 ± 0.24. For GGCUAGCAAUAUUACGAGAU, the “self-splicing fitness (ln)” value (30 °C) is -3.58 ± 0.21 and the “self-splicing fitness (ln)” value (37 °C) is -1.34 ± 0.14. On the same counts, the results for ACCGAGCAAUAUUACGAGCC are -3.21 ± 0.23 and -3.23 ± 0.32.

AAACAGCAAUAUUACGCAGA: the “self-splicing fitness (ln)” value is -2.53 ± 0.15 (30 °C) and -1.42 ± 0.11 (37 °C). For CGGUAGCAAUAUUACGUUGA, the “self-splicing fitness (ln)” value runs as follows: (30 °C) -3.27 ± 0.35; (37 °C) -1.76 ± 0.17.

Turning to UACGAGCAAUAUUACGUCGG, the “self-splicing fitness (ln)” value was -3.5 ± 0.23 (30 °C) and -1.38 ± 0.15 (37 °C). On the same counts, the results for CAGGAGCAAUAUUACGUUGG are -2.44 ± 0.14 and -0.863 ± 0.14. On to GAUGAGCAAUAUUACGGGCU, for which, where the note is “30 °C”, the “self-splicing fitness (ln)” value was -2.22 ± 0.4. Take GAUUAGCAAUAUUACGCCUU: the “self-splicing fitness (ln)” value by setting is: (30 °C) -0.529 ± 0.11; (37 °C) -0.304 ± 0.12. CUGGAGCAAUAUUACGUGAC: the “self-splicing fitness (ln)” value is, setting by setting: (30 °C) -1.85 ± 0.18; (37 °C) -0.992 ± 0.24. As to UCAGAGCAAUAUUACGCCCG, the “self-splicing fitness (ln)” value (30 °C) was -2 ± 0.47. Take CUGCAGCAAUAUUACGACGU: the “self-splicing fitness (ln)” value runs as follows: (30 °C) -2.98 ± 0.18; (37 °C) -2.49 ± 0.29. In the same order, the values of CGCGAGCAAUAUUACGGAAA are -2.72 ± 0.26 and -2.24 ± 0.3.

Regarding GUUCAGCAAUAUUACGGCGA, the “self-splicing fitness (ln)” value was -1.16 ± 0.19 (30 °C) and 0.354 ± 0.18 (37 °C). As to GCAAAGCAAUAUUACGGCGG, the “self-splicing fitness (ln)” value was -1.18 ± 0.13 (30 °C) and -2.07 ± 0.2 (37 °C). In the same order, the values of CUCAAGCAAUAUUACGACAA are -2.86 ± 0.23 and -1.89 ± 0.21. In the case of AACUAGCAAUAUUACGGACU, the “self-splicing fitness (ln)” value by setting is: (30 °C) -1.36 ± 0.24; (37 °C) 0.037 ± 0.28.

As for CAUCAGCAAUAUUACGCUGU, the “self-splicing fitness (ln)” value (30 °C) was -3.65 ± 0.18 and the “self-splicing fitness (ln)” value (37 °C) is -1.84 ± 0.15.

UGGCAGCAAUAUUACGCGUA: the “self-splicing fitness (ln)” value by setting is: (30 °C) -0.0648 ± 0.084; (37 °C) -0.33 ± 0.087. On the same counts, the results for GGCUAGCAAUAUUACGAGGU are -3.02 ± 0.42 and -1.07 ± 0.18. On the same counts, the results for GCAAAGCAAUAUUACGAACC are -0.831 ± 0.13 and -0.43 ± 0.17. Consider UUUCAGCAAUAUUACGCCCG, for which the “self-splicing fitness (ln)” value is, setting by setting: (30 °C) -0.734 ± 0.22; (37 °C) 0.939 ± 0.3. In the same order, the values of GUUGAGCAAUAUUACGACGA are -3.3 ± 0.32 and -2.2 ± 0.27. For the sequence CGAGAGCAAUAUUACGUGCC, the “self-splicing fitness (ln)” value (37 °C) is -2.05 ± 0.38.

Regarding CCAGAGCAAUAUUACGGAGU, the “self-splicing fitness (ln)” value was -3.32 ± 0.21 (30 °C) and -3.21 ± 0.28 (37 °C). On the same counts, the results for GUCUAGCAAUAUUACGCCAU are -2.11 ± 0.26 and -2.04 ± 0.18. In the same order, the values of GACCAGCAAUAUUACGUCCC are -0.756 ± 0.12 and -0.522 ± 0.13.

As for GCAAAGCAAUAUUACGACAA, the “self-splicing fitness (ln)” value reads like this: (30 °C) -1.43 ± 0.1; (37 °C) -0.838 ± 0.087. For the sequence CGAAAGCAAUAUUACGCGGC, the “self-splicing fitness (ln)” value was -2.81 ± 0.3 (30 °C) and -2.38 ± 0.31 (37 °C). In the same order, the values of CCUAAGCAAUAUUACGAGUA are -2.5 ± 0.16 and -1.98 ± 0.18. For UAACAGCAAUAUUACGGUGU, the “self-splicing fitness (ln)” value is -2.93 ± 0.11 (30 °C) and -2.01 ± 0.12 (37 °C). For the sequence AUACAGCAAUAUUACGUCAA, the “self-splicing fitness (ln)” value (30 °C) was -2.32 ± 0.15 and the “self-splicing fitness (ln)” value (37 °C) is -1.05 ± 0.1. As to GAGCAGCAAUAUUACGGCCC, the “self-splicing fitness (ln)” value was -1.51 ± 0.15 (30 °C) and -1.09 ± 0.19 (37 °C). Consider UACGAGCAAUAUUACGAUCC, for which the “self-splicing fitness (ln)” value (30 °C) is -3.23 ± 0.33. With AGAAAGCAAUAUUACGGCCA, the “self-splicing fitness (ln)” value runs as follows: (30 °C) -0.632 ± 0.096; (37 °C) -0.181 ± 0.13. CCCGAGCAAUAUUACGACCC: where the note is “37 °C”, the “self-splicing fitness (ln)” value is -0.219 ± 0.47. Regarding CUUGAGCAAUAUUACGAAUG, the “self-splicing fitness (ln)” value runs as follows: (30 °C) -1.23 ± 0.12; (37 °C) -0.596 ± 0.19. In the same order, the values of GGAGAGCAAUAUUACGAAUC are -3.58 ± 0.49 and -2.4 ± 0.39. In the same order, the values of GGCGAGCAAUAUUACGUUGA are -1.56 ± 0.13 and -2.18 ± 0.15.

With GCACAGCAAUAUUACGACAA, the “self-splicing fitness (ln)” value was -1.18 ± 0.087 (30 °C) and -1.22 ± 0.087 (37 °C). On the same counts, the results for UCCCAGCAAUAUUACGAGUG are -3.66 ± 0.18 and -1.79 ± 0.13. On the same counts, the results for CUUUAGCAAUAUUACGCAUG are -1.2 ± 0.11 and -1.96 ± 0.11. Consider CAGCAGCAAUAUUACGCGGA, for which the “self-splicing fitness (ln)” value is -2.58 ± 0.14 (30 °C) and -1.14 ± 0.11 (37 °C). In the same order, the values of GGAUAGCAAUAUUACGGUUC are -2.54 ± 0.23 and -2.05 ± 0.28. Consider UCCAAGCAAUAUUACGCUCG, for which the “self-splicing fitness (ln)” value (30 °C) was -4.74 ± 0.45 and the “self-splicing fitness (ln)” value (37 °C) was -2.28 ± 0.49.

On to CUCGAGCAAUAUUACGAUUC, for which the “self-splicing fitness (ln)” value (30 °C) was -3.29 ± 0.47. As to CCACAGCAAUAUUACGCCCA, the “self-splicing fitness (ln)” value runs as follows: (30 °C) -2.81 ± 0.14; (37 °C) -2.36 ± 0.16. In the same order, the values of UCAAAGCAAUAUUACGUUUC are -4.09 ± 0.26 and -3.15 ± 0.2.
